What all share (test): MSD specificity profiling, coated protein
One experiment concerns the target T1, Lectin (Lens culinaris) (Lens culinaris, UniProt P02870 31-210; P02870 218-269, limits assumed).
T1 sequence (looked up) 1: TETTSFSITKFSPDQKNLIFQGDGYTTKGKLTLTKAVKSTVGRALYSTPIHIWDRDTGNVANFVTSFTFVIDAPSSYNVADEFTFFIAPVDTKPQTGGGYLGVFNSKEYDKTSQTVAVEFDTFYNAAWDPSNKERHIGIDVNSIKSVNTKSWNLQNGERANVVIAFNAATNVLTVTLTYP
T1 sequence (looked up) 2: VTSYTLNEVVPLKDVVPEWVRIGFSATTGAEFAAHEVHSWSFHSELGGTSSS
The protocol:
(§1) For this specificity profiling test the different proteins and controls were coated on two 384-well MSD plates with a concentration of 1 μg/ml at 4° C. over night. Plates were blocked with BSA and washed three times with PBS with 0.05% (v/v) Tween 20. Antibody samples were diluted to 100 nM and 10 nM in assay buffer (PBS with 0.5% (w/v) BSA, 0.05% (v/v) Tween 20). […] Samples and controls were incubated for three hours at room temperature. The plates were washed three times and 30 μl detection antibody (ECL-labeled anti-human Fab) were added per well and incubated for 1 h. After washing, MSD Read Buffer T with surfactant was added and electrochemiluminescence signals were detected using a Sector Imager 6000 (Meso Scale Discovery, Gaithersburg, Md., USA).

A further experiment concerns the target Serum albumin (human) (human, UniProt P02768 25-609). The protocol:
as §1

In the next experiment the target is Transferrin (bovine) (bovine, UniProt Q29443 20-704). The protocol:
as §1

The next experiment has as its target T2, Fibrinogen (bovine) (bovine, UniProt P02672 20-615; P02676 1-468; P12799 25-444).
T2 sequence (looked up) 1: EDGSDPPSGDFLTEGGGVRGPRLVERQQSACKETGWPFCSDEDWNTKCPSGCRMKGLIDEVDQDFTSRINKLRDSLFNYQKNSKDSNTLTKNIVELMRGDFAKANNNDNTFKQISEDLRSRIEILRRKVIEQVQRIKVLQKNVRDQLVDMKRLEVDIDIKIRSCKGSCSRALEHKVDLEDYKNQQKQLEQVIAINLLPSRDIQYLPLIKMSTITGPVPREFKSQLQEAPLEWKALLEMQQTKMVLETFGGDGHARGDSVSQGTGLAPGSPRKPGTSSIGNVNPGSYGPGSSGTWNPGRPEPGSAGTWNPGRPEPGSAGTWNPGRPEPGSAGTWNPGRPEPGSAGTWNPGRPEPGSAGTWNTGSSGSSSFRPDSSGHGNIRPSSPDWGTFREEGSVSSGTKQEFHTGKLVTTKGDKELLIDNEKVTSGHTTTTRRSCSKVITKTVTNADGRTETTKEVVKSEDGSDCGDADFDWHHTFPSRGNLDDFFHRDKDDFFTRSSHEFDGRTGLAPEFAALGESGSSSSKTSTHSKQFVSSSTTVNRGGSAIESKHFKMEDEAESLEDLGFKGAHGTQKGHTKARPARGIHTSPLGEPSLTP
T2 sequence (looked up) 2: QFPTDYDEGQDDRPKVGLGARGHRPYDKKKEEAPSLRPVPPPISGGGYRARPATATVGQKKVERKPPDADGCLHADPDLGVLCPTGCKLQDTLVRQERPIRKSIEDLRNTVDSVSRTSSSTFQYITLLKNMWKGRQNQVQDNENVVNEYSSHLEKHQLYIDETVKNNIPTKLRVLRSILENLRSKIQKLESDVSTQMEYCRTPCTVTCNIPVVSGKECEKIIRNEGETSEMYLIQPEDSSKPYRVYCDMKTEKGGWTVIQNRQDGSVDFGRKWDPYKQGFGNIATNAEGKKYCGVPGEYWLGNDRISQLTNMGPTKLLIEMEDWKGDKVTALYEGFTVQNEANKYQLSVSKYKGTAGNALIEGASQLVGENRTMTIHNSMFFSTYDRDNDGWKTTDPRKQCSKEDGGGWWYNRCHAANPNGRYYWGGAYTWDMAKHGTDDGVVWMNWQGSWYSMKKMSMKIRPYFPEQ
T2 sequence (looked up) 3: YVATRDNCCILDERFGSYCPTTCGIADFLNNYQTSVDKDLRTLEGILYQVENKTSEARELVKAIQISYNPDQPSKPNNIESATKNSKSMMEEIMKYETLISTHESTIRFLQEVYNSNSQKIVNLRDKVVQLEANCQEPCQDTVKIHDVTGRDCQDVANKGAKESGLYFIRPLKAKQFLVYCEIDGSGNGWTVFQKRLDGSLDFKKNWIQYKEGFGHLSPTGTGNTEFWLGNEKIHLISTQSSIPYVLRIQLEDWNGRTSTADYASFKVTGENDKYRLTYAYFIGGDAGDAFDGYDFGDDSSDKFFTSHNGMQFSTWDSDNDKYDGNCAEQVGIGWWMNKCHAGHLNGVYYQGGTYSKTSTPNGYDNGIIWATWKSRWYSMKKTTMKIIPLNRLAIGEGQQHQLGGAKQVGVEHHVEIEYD
Here is the method: as §1

The target of a further experiment is Antitrypsin (human) (human, UniProt P01009 25-418). The protocol:
as §1

A further experiment deals with Myoglobin (horse) (horse, UniProt P68082 2-154). Here is the method: as §1
The target in a further experiment is Lysozyme (chicken) (chicken, UniProt P00698 19-147). The protocol: as §1
The target of another experiment is T3, Ovalbumin (chicken) (chicken, UniProt P01012 2-386).
T3 sequence (looked up): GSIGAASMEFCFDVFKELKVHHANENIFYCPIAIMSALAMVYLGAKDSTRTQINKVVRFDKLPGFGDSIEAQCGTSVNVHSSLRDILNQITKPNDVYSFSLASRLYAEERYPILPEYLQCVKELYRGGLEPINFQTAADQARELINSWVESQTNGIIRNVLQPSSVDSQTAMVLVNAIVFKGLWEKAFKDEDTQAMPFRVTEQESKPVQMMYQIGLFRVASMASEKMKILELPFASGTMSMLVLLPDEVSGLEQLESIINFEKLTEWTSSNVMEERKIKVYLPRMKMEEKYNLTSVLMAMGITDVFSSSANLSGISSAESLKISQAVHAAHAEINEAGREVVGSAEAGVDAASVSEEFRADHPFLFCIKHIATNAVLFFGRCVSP
The protocol:
as §1

The target in the next experiment is Pepsinogen (pork) (pork, UniProt P00791 16-385). The protocol:
as §1

Sequence of Transferrin (bovine) (Q29443 20-704 limits assumed): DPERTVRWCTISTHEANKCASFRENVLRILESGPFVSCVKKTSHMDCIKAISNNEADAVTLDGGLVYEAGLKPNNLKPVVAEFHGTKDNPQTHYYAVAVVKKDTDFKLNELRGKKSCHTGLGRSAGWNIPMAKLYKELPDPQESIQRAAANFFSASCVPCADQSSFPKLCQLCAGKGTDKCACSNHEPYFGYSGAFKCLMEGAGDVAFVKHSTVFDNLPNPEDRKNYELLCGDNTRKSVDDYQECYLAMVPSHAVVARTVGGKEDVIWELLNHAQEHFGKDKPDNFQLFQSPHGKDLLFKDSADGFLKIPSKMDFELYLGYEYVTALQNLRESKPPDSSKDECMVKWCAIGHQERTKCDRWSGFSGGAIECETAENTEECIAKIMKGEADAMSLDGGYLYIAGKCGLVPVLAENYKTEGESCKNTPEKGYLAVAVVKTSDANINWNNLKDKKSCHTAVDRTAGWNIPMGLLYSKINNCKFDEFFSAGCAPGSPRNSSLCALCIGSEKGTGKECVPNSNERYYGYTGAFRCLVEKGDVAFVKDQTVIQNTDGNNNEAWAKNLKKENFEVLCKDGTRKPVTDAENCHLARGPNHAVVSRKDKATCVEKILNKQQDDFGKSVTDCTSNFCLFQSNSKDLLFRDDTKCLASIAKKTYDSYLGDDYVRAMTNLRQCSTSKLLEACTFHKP
Sequence of Antitrypsin (human) (P01009 25-418 limits assumed): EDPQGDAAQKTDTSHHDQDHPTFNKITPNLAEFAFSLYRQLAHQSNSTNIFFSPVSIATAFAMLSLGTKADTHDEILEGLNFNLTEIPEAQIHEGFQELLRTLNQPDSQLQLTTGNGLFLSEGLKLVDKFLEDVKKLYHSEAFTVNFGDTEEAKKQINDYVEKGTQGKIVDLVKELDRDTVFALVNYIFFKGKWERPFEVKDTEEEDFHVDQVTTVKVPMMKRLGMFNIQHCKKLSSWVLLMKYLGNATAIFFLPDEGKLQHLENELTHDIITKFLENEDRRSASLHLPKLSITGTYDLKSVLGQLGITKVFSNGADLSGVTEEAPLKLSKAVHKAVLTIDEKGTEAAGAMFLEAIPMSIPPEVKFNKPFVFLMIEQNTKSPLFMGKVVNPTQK
Sequence of Lysozyme (chicken) (P00698 19-147): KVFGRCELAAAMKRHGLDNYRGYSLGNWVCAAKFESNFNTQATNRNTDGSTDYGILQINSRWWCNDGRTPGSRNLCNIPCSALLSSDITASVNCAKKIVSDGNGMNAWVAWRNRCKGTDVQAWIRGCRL
Sequence of Myoglobin (horse) (P68082 2-154 limits assumed): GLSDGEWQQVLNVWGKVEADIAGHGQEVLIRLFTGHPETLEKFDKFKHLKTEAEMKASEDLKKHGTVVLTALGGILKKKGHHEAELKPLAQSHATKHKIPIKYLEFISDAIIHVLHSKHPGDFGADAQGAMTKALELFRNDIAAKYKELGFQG
Sequence of Pepsinogen (pork) (P00791 16-385): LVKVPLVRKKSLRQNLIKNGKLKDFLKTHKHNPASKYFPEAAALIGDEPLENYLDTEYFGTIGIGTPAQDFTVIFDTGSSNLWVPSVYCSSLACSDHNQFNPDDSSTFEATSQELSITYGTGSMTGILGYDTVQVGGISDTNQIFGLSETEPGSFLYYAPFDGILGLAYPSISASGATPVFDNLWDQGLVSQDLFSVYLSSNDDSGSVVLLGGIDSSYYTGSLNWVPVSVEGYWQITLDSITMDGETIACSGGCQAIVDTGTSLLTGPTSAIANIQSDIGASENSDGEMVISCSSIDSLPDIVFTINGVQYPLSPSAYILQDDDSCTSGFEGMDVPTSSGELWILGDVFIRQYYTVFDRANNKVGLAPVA

B1: Camille (format not stated) (antibody, V domains shown)
VH: QVQLQQSGPGLVKPSQTLSLTCAISGESVSTSSAAWNWIRQSPSRGLEWLGRTYYRSKWKHEYAVSVKSRITINPDTSKNQFSLQLNSVTPEDTAVYYCARDRYYYSAFDYWGQGTLVTVSS
VL: QSALTQPASVSGSPGQSITISCTGTSSDVGGYNSVSWYQQHPGKAPKLLIYAVSNRPSGVSNRFSGSKSGNTASLTISGLQAEDEADYYCASYDERFTRVFGGGTKLTVLG
notes: also called Antibody Camille
B1: the binding result is “no binding (tested: 100 nM and 10 nM antibody)” with Lectin (Lens culinaris); “no binding (tested: 100 nM and 10 nM antibody)” with Serum albumin (human); “no binding (tested: 100 nM and 10 nM antibody)” in the experiment with Transferrin (bovine); “no binding (tested: 100 nM and 10 nM antibody)” with Fibrinogen (bovine); “no binding (tested: 100 nM and 10 nM antibody)” with Antitrypsin (human); “no binding (tested: 100 nM and 10 nM antibody)” in the experiment with Myoglobin (horse). Besides, the binding result is “no binding (tested: 100 nM and 10 nM antibody)” with Lysozyme (chicken); “no binding (tested: 100 nM and 10 nM antibody)” with Ovalbumin (chicken); “no binding (tested: 100 nM and 10 nM antibody)” with Pepsinogen (pork).

Values taken from US20180057581A1 (MorphoSys, published 2018).
